Data reported in paper PMC4551533, “Selection of DNA aptamers for ovarian cancer biomarker HE4 using CE-SELEX and high-throughput sequencing”.

T1: HE4-GST (human) (UniProt Q14508)
T1 sequence: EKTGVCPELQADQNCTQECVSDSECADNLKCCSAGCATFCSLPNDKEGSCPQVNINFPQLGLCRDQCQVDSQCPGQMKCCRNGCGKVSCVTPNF

T2: HE4-GST (human, UniProt Q14508 31-124)
T2 sequence: T1 sequence

B1: A1 (ssDNA)
DNA: TTATCGTACGACAGTCATCCTACAC
B2: B10 (ssDNA)
DNA: CAGTGCGTGCTTATTGGCGTAGCGTC
B3: A3 (ssDNA)
DNA: CACAGTGCGTCACATTTAGGGCATT
B4: L1 (ssDNA)
DNA: CCGTCTTCTGCTTGAAAAAAAAAAA

Key:
HE4-GST (human) = biological target: T1, HE4-GST (human); experiment: fluorescence anisotropy; settings: TGK: 25 mM Tris, 192 mM glycine, 5 mM KH2PO4, pH 8.3, 25 C, no divalent cations; APCE 10 nM DNA, 1 mg/mL BSA; anisotropy 0.1 mg/mL BSA, HE4-GST 0-750 nM
HE4-GST [1] = biological target: T2, HE4-GST; experiment: affinity probe capillary electrophoresis; TGK: 25 mM Tris, 192 mM glycine, 5 mM KH2PO4, pH 8.3, 25 C, no divalent cations; APCE 10 nM DNA, 1 mg/mL BSA; anisotropy 0.1 mg/mL BSA, HE4-GST 0-750 nM; settings: protein: commercial; tags: GST; label: 5' FAM (APCE); 5' TEX615 (anisotropy)
HE4-GST [2] = biological target: T2, HE4-GST; experiment: fluorescence anisotropy; TGK: 25 mM Tris, 192 mM glycine, 5 mM KH2PO4, pH 8.3, 25 C, no divalent cations; APCE 10 nM DNA, 1 mg/mL BSA; anisotropy 0.1 mg/mL BSA, HE4-GST 0-750 nM; settings: protein: commercial; tags: GST; label: 5' FAM (APCE); 5' TEX615 (anisotropy)
HE4-GST [3] = biological target: T2, HE4-GST; experiment: affinity probe capillary electrophoresis; discrepant with anisotropy; TGK: 25 mM Tris, 192 mM glycine, 5 mM KH2PO4, pH 8.3, 25 C, no divalent cations; APCE 10 nM DNA, 1 mg/mL BSA; anisotropy 0.1 mg/mL BSA, HE4-GST 0-750 nM; settings: protein: commercial; tags: GST; label: 5' FAM (APCE); 5' TEX615 (anisotropy)

Molecule | Kd (HE4-GST (human)) [nM] | Kd (HE4-GST [1]) [nM] | Kd (HE4-GST [2]) [nM] | Kd (HE4-GST [3]) [nM]
ATGGTCGCAAGAACTGAGAATTTAC [D3] | 26000 | – | – | –
B1 | – | 390 | 2200 | –
B2 | – | 870 | 280 | –
B3 | – | 500 | 9100 | –
B4 | – | – | – | 300
